B1: CHIP R225∗, recombinant, C-terminal His tag (enzyme, human, UniProt Q9UNE7-1 1-224, looked up)
chain: MKGKEEKEGGARLGAGGGSPEKSPSAQELKEQGNRLFVGRKYPEAAACYGRAITRNPLVAVYYTNRALCYLKMQQHEQALADCRRALELDGQSVKAHFFLGQCQLEMESYDEAIANLQRAYSLAKEQRLNFGDDIPSALRIAKKKRWNSIEERRIHQESELHSYLSRLIAAERERELEECQRNHEGDEDDSHVRAQQACIEAKHDKYMADMDELFSQVDEKRKK
notes: CHIP (STUB1), human, SCA48-associated nonsense variant R225∗ (stop in place of R225, U-box domain lost); source: PD-10 desalting for mass photometry, size exclusion for ubiquitination assays
B2: CHIP P228S, recombinant, C-terminal His tag (enzyme, human, UniProt Q9UNE7-1 1-303, looked up)
chain: MKGKEEKEGGARLGAGGGSPEKSPSAQELKEQGNRLFVGRKYPEAAACYGRAITRNPLVAVYYTNRALCYLKMQQHEQALADCRRALELDGQSVKAHFFLGQCQLEMESYDEAIANLQRAYSLAKEQRLNFGDDIPSALRIAKKKRWNSIEERRIHQESELHSYLSRLIAAERERELEECQRNHEGDEDDSHVRAQQACIEAKHDKYMADMDELFSQVDEKRKKRDISDYLCGKISFELMREPCITPSGITYDRKDIEEHLQRVGHFDPVTRSPLTQEQLIPNLAMKEVIDAFISENGWVEDY
notes: CHIP (STUB1), human, SCA48-associated U-box variant P228S; source: PD-10 desalting for mass photometry, size exclusion for ubiquitination assays; not shown: His tag, C-terminal, kept
B3: CHIP A67T, recombinant, C-terminal His tag (enzyme, human, UniProt Q9UNE7-1 1-303, looked up)
chain: MKGKEEKEGGARLGAGGGSPEKSPSAQELKEQGNRLFVGRKYPEAAACYGRAITRNPLVAVYYTNRTLCYLKMQQHEQALADCRRALELDGQSVKAHFFLGQCQLEMESYDEAIANLQRAYSLAKEQRLNFGDDIPSALRIAKKKRWNSIEERRIHQESELHSYLSRLIAAERERELEECQRNHEGDEDDSHVRAQQACIEAKHDKYMADMDELFSQVDEKRKKRDIPDYLCGKISFELMREPCITPSGITYDRKDIEEHLQRVGHFDPVTRSPLTQEQLIPNLAMKEVIDAFISENGWVEDY
notes: CHIP (STUB1), human, SCA48-associated TPR-domain variant A67T; source: PD-10 desalting for mass photometry, size exclusion for ubiquitination assays
B4: CHIP I53T, recombinant, C-terminal His tag (enzyme, human, UniProt Q9UNE7-1 1-303, looked up)
chain: MKGKEEKEGGARLGAGGGSPEKSPSAQELKEQGNRLFVGRKYPEAAACYGRATTRNPLVAVYYTNRALCYLKMQQHEQALADCRRALELDGQSVKAHFFLGQCQLEMESYDEAIANLQRAYSLAKEQRLNFGDDIPSALRIAKKKRWNSIEERRIHQESELHSYLSRLIAAERERELEECQRNHEGDEDDSHVRAQQACIEAKHDKYMADMDELFSQVDEKRKKRDIPDYLCGKISFELMREPCITPSGITYDRKDIEEHLQRVGHFDPVTRSPLTQEQLIPNLAMKEVIDAFISENGWVEDY
notes: CHIP (STUB1), human, SCA48-associated TPR-domain variant I53T; source: PD-10 desalting for mass photometry, size exclusion for ubiquitination assays
B5: CHIP R241W, recombinant, C-terminal His tag (enzyme, human, UniProt Q9UNE7-1 1-303, looked up)
chain: MKGKEEKEGGARLGAGGGSPEKSPSAQELKEQGNRLFVGRKYPEAAACYGRAITRNPLVAVYYTNRALCYLKMQQHEQALADCRRALELDGQSVKAHFFLGQCQLEMESYDEAIANLQRAYSLAKEQRLNFGDDIPSALRIAKKKRWNSIEERRIHQESELHSYLSRLIAAERERELEECQRNHEGDEDDSHVRAQQACIEAKHDKYMADMDELFSQVDEKRKKRDIPDYLCGKISFELMWEPCITPSGITYDRKDIEEHLQRVGHFDPVTRSPLTQEQLIPNLAMKEVIDAFISENGWVEDY
notes: CHIP (STUB1), human, SCA48-associated U-box variant R241W; source: PD-10 desalting for mass photometry, size exclusion for ubiquitination assays
B6: CHIP P57L, recombinant, C-terminal His tag (enzyme, human, UniProt Q9UNE7-1 1-303, looked up)
chain: MKGKEEKEGGARLGAGGGSPEKSPSAQELKEQGNRLFVGRKYPEAAACYGRAITRNLLVAVYYTNRALCYLKMQQHEQALADCRRALELDGQSVKAHFFLGQCQLEMESYDEAIANLQRAYSLAKEQRLNFGDDIPSALRIAKKKRWNSIEERRIHQESELHSYLSRLIAAERERELEECQRNHEGDEDDSHVRAQQACIEAKHDKYMADMDELFSQVDEKRKKRDIPDYLCGKISFELMREPCITPSGITYDRKDIEEHLQRVGHFDPVTRSPLTQEQLIPNLAMKEVIDAFISENGWVEDY
notes: CHIP (STUB1), human, SCA48-associated TPR-domain variant P57L; source: PD-10 desalting for mass photometry, size exclusion for ubiquitination assays
B7: CHIP G33S, recombinant, C-terminal His tag (enzyme, human, UniProt Q9UNE7-1 1-303, looked up)
chain: MKGKEEKEGGARLGAGGGSPEKSPSAQELKEQSNRLFVGRKYPEAAACYGRAITRNPLVAVYYTNRALCYLKMQQHEQALADCRRALELDGQSVKAHFFLGQCQLEMESYDEAIANLQRAYSLAKEQRLNFGDDIPSALRIAKKKRWNSIEERRIHQESELHSYLSRLIAAERERELEECQRNHEGDEDDSHVRAQQACIEAKHDKYMADMDELFSQVDEKRKKRDIPDYLCGKISFELMREPCITPSGITYDRKDIEEHLQRVGHFDPVTRSPLTQEQLIPNLAMKEVIDAFISENGWVEDY
notes: CHIP (STUB1), human, SCA48-associated TPR-domain variant G33S; source: PD-10 desalting for mass photometry, size exclusion for ubiquitination assays; not shown: His tag, C-terminal, kept
B8: CHIP F37L, recombinant, C-terminal His tag (enzyme, human, UniProt Q9UNE7-1 1-303, looked up)
chain: MKGKEEKEGGARLGAGGGSPEKSPSAQELKEQGNRLLVGRKYPEAAACYGRAITRNPLVAVYYTNRALCYLKMQQHEQALADCRRALELDGQSVKAHFFLGQCQLEMESYDEAIANLQRAYSLAKEQRLNFGDDIPSALRIAKKKRWNSIEERRIHQESELHSYLSRLIAAERERELEECQRNHEGDEDDSHVRAQQACIEAKHDKYMADMDELFSQVDEKRKKRDIPDYLCGKISFELMREPCITPSGITYDRKDIEEHLQRVGHFDPVTRSPLTQEQLIPNLAMKEVIDAFISENGWVEDY
notes: CHIP (STUB1), human, SCA48-associated TPR-domain variant F37L; source: PD-10 desalting for mass photometry, size exclusion for ubiquitination assays

The first data set concerns the molecule itself. In words: mass photometry; Refeyn OneMP; CHIP at 50 nM final (a subset also at 20 nM and 100 nM) in 20 mM HEPES pH 8.0, 200 mM NaCl; self-association, oligomeric states by mass.
In the case of B1, the “stoichiometry N” value amounted to 2.

Another data set deals with the molecule itself. The data set is described as above. The source holds these as a separate data set.
For B2, the binding result was “binds”.

On to B3, for which the binding result was “binds”.

Take B4: the binding result is “binds”.

Consider B5, for which the binding result is recorded as “binds”.

As for B6, the binding result is listed as “binds”.

On to B7, for which the binding result was “binds”.

Consider B8, for which the binding result is listed as “binds”.
